Consider four molecules from patent EP4684807A1, “LINKER AND USE THEREOF IN LIGAND DRUG CONJUGATE” (priority 2023, dated 2024).

In the experiment the target is T1, ADAM9 on ADAM9-positive cells (Calu-3, Ls174T) (UniProt Q13443 29-819, limits assumed).
T1 sequence (looked up): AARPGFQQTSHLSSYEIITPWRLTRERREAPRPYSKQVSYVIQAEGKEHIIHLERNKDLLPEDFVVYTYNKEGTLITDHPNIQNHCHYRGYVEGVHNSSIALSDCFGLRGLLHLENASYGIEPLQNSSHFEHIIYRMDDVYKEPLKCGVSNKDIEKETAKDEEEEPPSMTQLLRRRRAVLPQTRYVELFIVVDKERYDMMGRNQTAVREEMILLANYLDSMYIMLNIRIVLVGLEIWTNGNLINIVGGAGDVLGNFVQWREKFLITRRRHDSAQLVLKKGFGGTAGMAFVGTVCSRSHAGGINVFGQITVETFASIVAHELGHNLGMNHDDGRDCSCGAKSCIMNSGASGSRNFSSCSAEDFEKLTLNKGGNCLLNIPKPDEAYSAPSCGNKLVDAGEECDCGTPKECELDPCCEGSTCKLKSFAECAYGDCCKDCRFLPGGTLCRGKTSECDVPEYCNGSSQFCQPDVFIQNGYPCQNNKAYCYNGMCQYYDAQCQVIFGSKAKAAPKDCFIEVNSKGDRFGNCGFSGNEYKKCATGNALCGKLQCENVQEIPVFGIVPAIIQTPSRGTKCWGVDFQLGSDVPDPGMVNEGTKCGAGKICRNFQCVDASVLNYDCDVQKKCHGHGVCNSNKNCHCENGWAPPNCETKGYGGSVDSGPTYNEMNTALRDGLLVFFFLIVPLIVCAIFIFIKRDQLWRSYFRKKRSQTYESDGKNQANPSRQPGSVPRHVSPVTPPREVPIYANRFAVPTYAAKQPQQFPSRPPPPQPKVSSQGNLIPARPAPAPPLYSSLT
Kind of experiment: cell-based or functional assay.

B1: ADC-3D-1 (Reference ADC-22C) (antibody, human IgG1, kappa, V domains shown)
VH: QVQLQQPGTEVVKPGASVKLSCKASGFTFPLYWMHWVRQRPGRGLEWIGRIIPIFGHTKYNEKFKNKATLTADESSSTAYMELRSLTSDDSAVYYCARGGYYYYPREGFLDYWGQGTSVTVSS
VL: DIVMTQSPASLSVSPGERASISCRSSQSVDYSGDSYMNWYQQKPGQSPRLLIYAASDRESGVPDRFSGSGSGTDFTLKISRVEEEDAGTYYCQQSREDPFTFGQGTKVDIKR
modifications: control linker-payload conjugated to antibody thiols after TCEP reduction; DAR (k) 7.5 for the whole antibody
In the case of B1, the “IC50 (nM), inhibition of cell proliferation, Calu-3 cells, CellTiter-Glo, 6 days” value came out at 0.34 nM.

B2: ADC-1D-1 (Reference ADC-20C) (antibody, human IgG1, kappa, V domains shown)
VH: B1 VH
VL: B1 VL
modifications: control linker-payload conjugated to antibody thiols after TCEP reduction; DAR (k) 4.4 for the whole antibody
In the case of B2, the “IC50 (nM), inhibition of cell proliferation, Ls174T cells, CellTiter-Glo, 6 days” value turned out to be 15.3 nM.

B3: ADC-2D-1 (Reference ADC-20C) (antibody, human IgG1, kappa, V domains shown)
VH: B1 VH
VL: B1 VL
modifications: control linker-payload conjugated to antibody thiols after TCEP reduction; DAR (k) 4.3 for the whole antibody
With B3, the “IC50 (nM), inhibition of cell proliferation, Ls174T cells, CellTiter-Glo, 6 days” value was found to be 27.1 nM.

B4: ADC-4D-1 (Reference ADC-22C) (antibody, human IgG1, kappa, V domains shown)
VH: B1 VH
VL: B1 VL
modifications: control linker-payload conjugated to antibody thiols after TCEP reduction; DAR (k) 7.6 for the whole antibody
Regarding B4, the “IC50 (nM), inhibition of cell proliferation, Calu-3 cells, CellTiter-Glo, 6 days” value was found to be 0.78 nM.
